The values that follow come from patent US8071348B2, “Protein tyrosine phosphatase substrate-trapping double mutant and uses thereof” (Albert Einstein College of Medicine of Yeshiva University, priority 2002, dated 2011).

[ ]: non-standard residue; d: D form. F2Pmp = N[C@@H](Cc1ccc(C(F)(F)P(=O)(O)O)cc1)C(=O)O

Experiment [1] concerns the target T1, Ac-Asp-Ala-Asp-Glu-F2Pmp-Leu-NH2.
T1 construct: Synthetic hexapeptide printed in three-letter code; also called F2Pmp-containing peptide; non-hydrolyzable substrate analog
T1 peptide: Ac-DADE[F2Pmp]L-NH2
Put plainly: ITC. On the procedure:
(§1) All isothermal titration calorimetry experiments were performed using an MCS Isothermal Titration Calorimetry System from Microcal Inc. (Northampton, Mass.). Experiments at pH 7.0 were conducted at 25° C., in 50 mM 3,3-dimethylglutarate buffer containing 1 mM DTT. The ionic strength of the buffer was adjusted to 0.15 M by addition of NaCl. Protein concentration in the calorimeter cell was 27-85 µM, while the ligand concentration in the syringe was 0.37-1 mM.
(§2) A typical titration curve and binding isotherm for the binding of D181A/Q262A to Ac-Asp-Ala-Asp-Glu-F_2Pmp-Leu-NH_2 is shown in FIG. 3. From curve-fitting of the binding isotherms, the stoichiometry for the binding of the peptide to D181A/Q262A was determined to be 1:1.

The target is the same in experiment [2]. Put plainly: ITC, 25 C, pH 7.0. The procedure:
as §1
The PTP1B samples used in the isothermal titration calorimetry experiments were dialyzed completely against buffer. High-concentration stock solutions were prepared for ligands with distilled water, and adjusted to pH 7.0. […] Protein dilution during titration was determined by titration of buffer into the protein solution. […] The heat of ligand dilution was corrected by subtracting the average heat of injection after saturation.
as §2
For orientation: In ITC the heat of successive injections is recorded.

Experiment [3] shares this target. Briefly: ITC, 25 C, pH 7.0. The procedure: as §1, §2
For another experiment, the system named is EGF receptor. Briefly: Substrate protection: EGF receptor tyrosine phosphorylation in COS1 cells expressing PTP1B forms (anti-pTyr Western blot). It is filed as cell-based, Monkey. The conditions noted are these: COS1 cell lysates, anti-pTyr immunoblot (FIG. 4). On the procedure: FIG. 4 sets forth Western blots (WB) that show the level of tyrosine phosphorylation in the epidermal growth factor receptor (EGFR) upon expression of the wild-type and mutant PTP1Bs (4 μg plasmid/60 mm dish) in COS1 cells. Samples (50 μg total protein) were taken from the lysates of COS1 cells transfected with 4 μg of pJ3H plasmids expressing HA-tagged wild-type PTP1B, D181A, C215S, D181A/Q262A, or D181A/C215S. These samples were loaded into each lane for SDS-PAGE electrophoresis, and transferred onto a nitrocellulose membrane. The proteins on the membrane were first immunoblotted with anti-pTyr HRP conjugate (upper panel). The membrane was then stripped and re-probed with anti-hemagglutinin (anti-HA) HRP conjugate (lower panel).
The hemagglutinin-tagged (HA-tagged) full-length human wild-type PTP1B in pJ3H expression vector was a gift from Dr. Chemoff (30). The HA-tagged PTP1B mutants, C215S, D181A, D181A/C215S, and D181A/Q262A, were generated by PCR reactions, according to the standard procedure of the Quick-Change™ site-directed mutagenesis kit (Stratagene), using pJ3H-HA-PTP1B as a template. All mutations were verified by DNA sequencing.
Monkey kidney COS1 cells (ATCC: CRL-1650) were maintained in Dulbecco's modified Eagle's minimum essential medium (DMEM), supplemented with 10% fetal bovine serum (Life Technologies, Inc.), penicillin (50 units/ml), streptomycin (50 μg/ml), and L-glutamine (2 mM) under a humidified atmosphere containing 5% CO2. In transient transfection experiments, COS1 cells were inoculated at a density of 2×10^5 cells/60-mm dish, and grown overnight in DMEM containing 10% fetal bovine serum. Transfection was performed using LipoTAXI^R according to the manufacturer's recommendations (Stratagene, Cedar Creek, Tex.). Each transfection assay included 4 μg of purified DNA mixed with LipoTAXI^R in a 1:5 DNA:lipid ratio per 60-mm dish of cells. Following transfection, the cells were exchanged to normal culture medium, and maintained for 44 to 48 h at 37° C. and 5% CO2. The efficiency of transfection, as assessed by 5-bromo-4-chloro-3-indolyl-β-D galactoside (X-Gal) staining of pCMV-β-gal-transfected (β-Gal staining kit, Invitrogen) COS cells, was 25%.
The transfected cells (treated with or without EGF) were lysed with “lysis buffer” containing 50 mM Tris-HC1 (pH 7.5), 5 mM EDTA, 150 mM NaCl, 10 mM sodium phosphate, 10 mM sodium fluoride, 5 mM iodoacetic acid, 1 mM benzamidine, 1% Triton X-100, 10 μg/ml leupeptin, and 5 μg/ml Aprotinin. Lysate protein concentration was estimated using Bio-Rad protein assay reagent (Bio-Rad, Hercules, Calif.).
For immunoprecipitation, 1 mg of cell lysate was immunoprecipitated overnight with 30 μl of agarose-conjugated anti-hemagglutinin antibody at 4° C. Immunocomplexes were washed four times with the cell lysis buffer, and boiled for 5 min in SDS-PAGE sample buffer. Proteins in the cell lysate were separated by 8% SDS-PAGE under reducing conditions, according to the method of Laemmli (31), followed by blotting onto nitrocellulose membranes (Protran, Schleicher & Schuell). The nitrocellulose membranes were blocked with 5% non-fat dry milk in Tris-buffered saline/Tween (TBST) buffer (20 mM Tris-HC1, 150 mM NaCl, 0.1% Tween-20; pH 7.6) for 1 h at 25° C.
Thereafter, blots were incubated overnight with primary antibodies diluted in TBST containing 5% non-fat dry milk at 4° C. […]
A general note: A western blot detects proteins with antibodies after separation by electrophoresis.

B1: PTP1B/D181A/Q262A, catalytic domain (residues 1 to 321) (enzyme, human, UniProt P18031 1-321, looked up)
chain: MEMEKEFEQIDKSGSWAAIYQDIRHEASDFPCRVAKLPKNKNRNRYRDVSPFDHSRIKLHQEDNDYINASLIKMEEAQRSYILTQGPLPNTCGHFWEMVWEQKSRGVVMLNRVMEKGSLKCAQYWPQKEEKEMIFEDTNLKLTLISEDIKSYYTVRQLELENLTTQETREILHFHYTTWPAFGVPESPASFLNFLFKVRESGSLSPEHGPVVVHCSAGIGRSGTFCLADTCLLLMDKRKDPSSVDIKKVLLEMRKFRMGLIATADQLRFSYLAVIEGAKFIMGDSSVQDQWKELSHEDLEPPPEHIPPPPRPPKRILEPHN
notes: range 1-321; Used in vitro (ITC, kinetics); also called PTP1B substrate-trapping double mutant
B1: the “fold higher substrate-binding affinity than PTP1B/C215S” value in experiment [1] was determined as 28 fold. In experiment [2], the TΔS came out at 6.6 kcal/mol, the ΔG is -11.1 kcal/mol and the ΔH is -4.5 kcal/mol. Besides, in experiment [3], the “fold higher affinity than the D181A mutant” value is approximately 6 fold; the “fold lower Kd than wild-type PTP1B and the C215S mutant” value was approximately 30 fold. Also, in the experiment on EGF receptor, the “level of pTyr in the EGF receptor / enhancement of EGF receptor phosphorylation” value is listed as “most pronounced” and the “protection of phosphorylated EGF receptors, fold better than D181A” value is given as “more than 3 fold”.
